Results: IntAct's records for PubMed 35016035

B1: Protein FAM90A1 (Homo sapiens), Q86YD7 (parent)
chain: MMARRDPKPGAKRLVRAQTLQKQRRAPVGPRAPPPDEEDPRLKCKNCEAFGHTARSTRCPMKCWKAALVPPNFGEKEGKENLKPWKPQVEANPGPLNKDKGEKEERPRPQDPQRKALLHIFSRKPPEKPLPNQKGSTESSDYLRVASGPMPVHTTSKRPRVDPVLSDRSATEMSDRGSVLASLSPLRKASLSSSSSLGPKERQTGAAADIPQTAVRHQGPEPLLVVKPTHSSPAGGCREVPQAASKTHGLLQAVSPQAQDKRPAVTSQPCPPAATHSLGLGSNLSFGPGAKRSAPAPIQACLNFPKKPRLGPFQIPESAIQGGELGAPENLQPPPAATELGPRTSPQTGTRTPAQVLSGDRQPPHSRPCLPTAQACTMSHHPAASHDGAQPLRVLFRRLENGRWSSSLLTAPSFHSPEKPGAFLAQSPHVSEKSEGPCVRVPPSVLYEDLQVPSSSEDSDSDLE
B2: Speedy protein E4 (Homo sapiens), A6NLX3 (parent)
chain: MASGQARPPFEEESPQPSTTVRSPEVVVDDEVPGPSAPWIDPSPQPQSLGLKRKSEWSDESEEELEEELELERAPEPEDTWVVETLCGLKMKLKRKRASSVLPEHHEAFNRLLGDPVVQKFLAWDKDLRVSDKYLLAMVIAYFSRAGLFSWQYQRIHFFLALYLASDMEEDNQAPKQDIFSFLYGKNYSQRPLFHKLRYQLLCSMRWRTWVSPEEMEEIQAYDPEHWVWARDRTLIS

Variants of: B1
Settings: with brd4_human BRD4, O60885

Row | Variant | effect of a mutation on the interaction
1 | MMARRDPKPGAKRLVRAQTLQKQRRAPVGPRAPPPDEEDPRLKCKNCEAFGHTARSTRCPMKCWKAALVPPNFGEKEGKENLKPWKPQVEANPGPLNKDKGEKEERPRPQDPQRKALLHIFSRKPPEKPLPNQKGSTESSDYLRVASGPMPVHTTSKRPRVDPVLSDRSATEMSDRGSVLASLSPLRKASLSSSSSLGPKERQTGAAADIPQTAVRHQGPEPLLVVKPTHSSPAGGCREVPQAASKTHGLLQAVSPQAQDKRPAVTSQPCPPAATHSLGLGSNLSFGPGAKRSAPAPIQACLNFPKKPRLGPFQIPESAIQGGELGAPENLQPPPAATELGPRTSPQTGTRTPAQVLSGDRQPPHSRPCLPTAQACTMSHHPAASHDGAQPLRDLDRRLENGRDSDSLLTAPSFHSPEKPGAFLAQSPHVSEKSEGPCVRVPPSVLYEDLQVPSSSEDSDSDLE [V394D;F396D;W404D;S406D] | disrupting interaction strength

Variants of: B2
Settings: with brd4_human BRD4, O60885

Row | Variant | effect of a mutation on the interaction
2 | MASGQARPPFEEESPQPSTTVRSPEVVVDDEVPGPSAPWIDPSPQPQSLGLKRKSEWSDESEEELEEELELERAPEPEDTWVDETDCGLKDKDKRKRASSVLPEHHEAFNRLLGDPVVQKFLAWDKDLRVSDKYLLAMVIAYFSRAGLFSWQYQRIHFFLALYLASDMEEDNQAPKQDIFSFLYGKNYSQRPLFHKLRYQLLCSMRWRTWVSPEEMEEIQAYDPEHWVWARDRTLIS [V83D;L86D;M91D;L93D] | disrupting interaction strength
